Measurements reported in article PMC6368585, “Chaperone activation and client binding of a 2-cysteine peroxiredoxin” (Nature Communications, 2019).

Key:
[1] = target: luciferase (thermally unfolded model client) [luciferase: P08659]
[2] = target: T1, luciferase (thermally unfolded model client) (UniProt P08659 1-550 = luciferase); assay: AUC; analytical ultracentrifugation of mTXNPxred with luciferase (Supplemental Methods); conditions: both partners purified
T1 construct: luciferase, 63 kDa; cross-links were mapped onto the whole-chain model pdb 1LCI; source: bought: Promega

[3] = target: the molecule itself; assay: cross-linking; quantitative cross-linking (qCL) with isotopically light or heavy DSS (0.1 mM), each condition (Red or Ox, 30 °C or 42 °C) cross-linked apart and mixed 1:1; log2(H/L) of inter-protein K122/K123 peptide pairs across the dimer-dimer (A-type) interface; decamer to dimers

T1 sequence (P08659 whole entry): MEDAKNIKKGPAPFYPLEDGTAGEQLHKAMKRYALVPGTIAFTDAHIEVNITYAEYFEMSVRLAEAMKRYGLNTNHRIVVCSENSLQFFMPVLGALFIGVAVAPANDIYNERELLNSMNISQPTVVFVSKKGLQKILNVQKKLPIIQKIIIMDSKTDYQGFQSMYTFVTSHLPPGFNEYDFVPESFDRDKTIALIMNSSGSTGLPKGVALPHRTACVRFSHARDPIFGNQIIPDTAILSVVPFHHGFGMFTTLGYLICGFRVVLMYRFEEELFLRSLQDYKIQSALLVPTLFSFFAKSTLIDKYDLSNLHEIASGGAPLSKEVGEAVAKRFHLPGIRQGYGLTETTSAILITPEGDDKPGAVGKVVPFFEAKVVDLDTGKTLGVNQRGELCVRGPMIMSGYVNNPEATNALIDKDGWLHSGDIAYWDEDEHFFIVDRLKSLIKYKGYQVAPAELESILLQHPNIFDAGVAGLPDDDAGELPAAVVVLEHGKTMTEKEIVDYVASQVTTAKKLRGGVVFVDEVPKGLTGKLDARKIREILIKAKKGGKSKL
Sequence of luciferase (thermally unfolded model client) [luciferase: P08659] (P08659 whole entry): as above

Molecule: ∆5mTXNPx, N-terminal truncation mutant lacking the first 5 residues of the mature protein (reduced) (from UniProt A0A6L0XFC6 33-226) (enzyme)
- chaperone activity: suppression of the thermal aggregation of luciferase (0.1 µM, 42 °C, light scattering at 360 nm), different ratios up to a 40-fold molar excess, compared to wt-mTXNPx (% less active than wt-mTXNPx) [1]: > 70

B1: reduced, decameric Leishmania infantum mitochondrial 2-Cys peroxiredoxin mTXNPx (mTXNPxred) (enzyme)
chain: GSHMNLDYQMYRTATVREAAPQFSGQAVVNGAIKDINMNDYKGKYIVLFFYPMDFTFVCPTEIIAFSDRHADFEKLNTQVVAVSCDSVYSHLAWVNTPRKKGGLGEMHIPVLADKSMEIARDYGVLIEESGIALRGLFIIDKKGILRHSTINDLPVGRNVDEALRVLEAFQYADENGDAIPCGWKPGQPTLDTTKAGEFFEKNM
notes: Reduced form, decamer of five dimers; also called Prx1m; wt mTXNPx; source: E. coli BL21(DE3), purified; His tag removed with thrombin; reduced with 5 mM DTT; not shown: His6, N-terminal, cleaved; copies: 10
- stoichiometry N [2]: 1 luciferase per mTXNPx decamer
- log2(H/L) of inter-protein cross-link Pep1-Pep1, heavy Red (42 °C) over light Red (30 °C) [3]: -2.32 log2 ratio
- log2(H/L) of inter-protein cross-link Pep1-Pep2, heavy Red (30 °C) over light Red (42 °C) [3]: 1.4 log2 ratio
- log2(H/L) of inter-protein cross-link Pep1-Pep2, heavy Red (42 °C) over light Red (30 °C) [3]: -1.55 log2 ratio
